Substitutions are numbered along the chain they refer to. One block for each binder: values may come before it.
Target: KRAS G13D antigen (G13D-RT6, SEQ ID NO: 20) loaded on Lovo-DPA0301:DPB0501 cells (human)
Assay: cell-based or functional assay

B1: B8.2.4 TCR mutant β97V-L (TCR, V domains shown)
V domain 1: AQKITQTQPGMFVQEKEAVTLDCTYDTSDPSYGLFWYKQPSSGEMIFLIYQGSYDQQNATEGRYSLNFQKARKSANLVISASQLGDSAMYFCAMRERTGTASKLTFGTGTRLQVTL
V domain 2: DVKVTQSSRYLVKRTGEKVFLECVQDMDHENMFWYRQDPGLGLRLIYFSYDVKMKEKGDIPEGYSVSREKKERFSLILESASTNQTSMYLCASSQTLPPQHFGDGTRLSILE
- TCR Mut RLU/WT RLU: 0.58 ratio

B2: B8.2.4 TCR mutant β97V-M (TCR, V domains shown)
V domain 1: B1 V domain 1
V domain 2: B1 V domain 2 with L97M
- TCR Mut RLU/WT RLU: 0.35 ratio

B4: B8.2.4 TCR mutant β97V-Q (TCR, V domains shown)
V domain 1: B1 V domain 1
V domain 2: B1 V domain 2 with L97Q
- TCR Mut RLU/WT RLU: 0.3 ratio

B6: B8.2.4 TCR mutant β97V-N (TCR, V domains shown)
V domain 1: B1 V domain 1
V domain 2: B1 V domain 2 with L97N
- TCR Mut RLU/WT RLU: 0.26 ratio

B7: B8.2.4 TCR mutant β97V-P (TCR, V domains shown)
V domain 1: B1 V domain 1
V domain 2: B1 V domain 2 with L97P
- TCR Mut RLU/WT RLU: 0.32 ratio

The next lines start with the values.

- TCR Mut RLU/WT RLU: 0.37 ratio
B3: B8.2.4 TCR mutant β97V-R (TCR, V domains shown)
V domain 1: B1 V domain 1
V domain 2: B1 V domain 2 with L97R

- TCR Mut RLU/WT RLU: 0.78 ratio
B5: B8.2.4 TCR mutant β97V-S (TCR, V domains shown)
V domain 1: B1 V domain 1
V domain 2: B1 V domain 2 with L97S

— patent US20240123070A1 (SHANGHAI GENBASE BIOTECHNOLOGY, published 2024)
